According to PMC4605657, “Interaction between TATA-Binding Protein (TBP) and Multiprotein Bridging Factor-1 (MBF1) from the Filamentous Insect Pathogenic Fungus Beauveria bassiana” (PLoS ONE, 2015):

Target: T1, Beauveria bassiana TATA-binding protein (BbTBP) (Beauveria bassiana, UniProt J4W563 1-253)
T1 construct: open reading frame amplified with primers PTBP-F/PTBP-R and cloned EcoRI/HindIII into pET28a; the forward primer begins at the codon after the start methionine (GAG GGC ATT ...), the reverse primer holds the stop codon; also called BbTBP1; source: E. coli Rosetta DE3, purified (Ni- or Co-NTA agarose)
T1 sequence: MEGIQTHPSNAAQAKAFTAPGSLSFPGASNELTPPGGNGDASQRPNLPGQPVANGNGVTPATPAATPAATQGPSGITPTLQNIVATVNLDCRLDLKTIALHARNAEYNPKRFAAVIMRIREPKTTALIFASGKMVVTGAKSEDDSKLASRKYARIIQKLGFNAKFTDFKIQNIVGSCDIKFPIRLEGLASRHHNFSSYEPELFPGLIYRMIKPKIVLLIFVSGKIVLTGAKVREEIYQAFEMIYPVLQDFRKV
Experiment: native gel or EMSA; super-shift on 6% non-denaturing PAGE; BbTBP 1129 nM and BbMBF1 855 nM with TATA-containing oligonucleotide (TATA^C 16.8 nM or TATA^P 18.3 nM); 30 min at 37°C; 60 mM KCl, 20 mM Tris pH 7.9, 5.0 mM MgCl2, 10 mM dithiothreitol, 0.2 mg/ml BSA, 10% glycerol; nucleic acid and protein stain
Conditions: both partners purified

B1: Beauveria bassiana multiprotein bridging factor 1 (BbMBF1) (natural protein)
chain: not shown
notes: Multiprotein bridging factor 1 of Beauveria bassiana, locus tag BBA_01830, 153 amino acids; open reading frame amplified with primers PMBF1-F/PMBF1-R and cloned EcoRI/HindIII into pET28a; the forward primer begins at the codon after the start methionine (TCT GAC GAC ...), the reverse primer holds the stop codon; source: E. coli Rosetta DE3, purified (Ni- or Co-NTA agarose)
binding result: binds
